US20260008817A1, “CYCLIC PEPTIDE OR SALT THEREOF, AND USES THEREOF” (FUJIFILM Corporation, priority 2023, published 2026)

How the values were obtained:
[1] = target: T1, Recombinant Human FGFR1 alpha (IIIc) Fc Chimera Protein (Homo sapiens, UniProt P11362); test: SPR binding affinity of chemically synthesized cyclic peptide to immobilized FGFR; conditions: SPR binding amount at 10 nmol/L cyclic peptide, 25° C.; chemically synthesized product
T1 construct: purchased R&D systems 658-FR-050
Experimental: The binding affinity of the cyclic peptide to FGFR was evaluated using a surface plasmon resonance (SPR) method.
(§1) The binding affinity of the chemically synthesized cyclic peptide to FGFR was evaluated by the following procedure.
A CM5 sensor chip (Cytiva, 29149603) was set in Biacore-T200 (manufactured by Cytiva) which is a surface plasmon resonance device, and an HBS-EP buffer (Cytiva, BR100826) was added as a running buffer at a flow rate of 10 μL/min to equilibrate the flow channel. Next, 70 μL of a mixed aqueous solution of 0.2 mol/L 1-(3-dimethylaminopropyl)-3-ethylcarbodiimide (EDC) and 0.05 mol/L N-hydroxysuccinimide (NHS) was added to activate the sensor chip. Then, Recombinant Human FGFR1 alpha (IIIc) Fc Chimera Protein CF (R&D systems, 658-FR-050) prepared at 50 nmol/L in an Acetate 4.5 buffer (Cytiva, BR100350) was added thereto to perform immobilization at about 5000 RU. Thereafter, the blocking treatment was performed with an ethanolamine solution. In addition, in another flow channel of the same sensor chip, blocking treatment was performed immediately after activation without immobilizing FGFR.
A cyclic peptide diluted to 10 nmol/L using HBS-EP was added to each flow channel of the FGFR-immobilized sensor chip produced above at 25° C. for 10 minutes, then HBS-EP was allowed to flow as a running buffer for 30 minutes, and the binding of the cyclic peptide to FGFR was measured. Thereafter, a regeneration treatment of removing the bound cyclic peptide was performed by repeating the flow of a regeneration liquid in which sodium chloride powder was dissolved in Glysine 1.5 (Cytiva, BR100354) to a final concentration of 0.15 mol/L for 1 minute in each flow channel twice. The binding amount of the cyclic peptide was evaluated from the difference between the measured value of Biacore-T200 in the flow channel in which FGFR was immobilized and the measured value of Biacore-T200 in the flow channel in which FGFR was not immobilised, in a case where a 10 nmol/L cyclic peptide was allowed to flow.
The binding amount of the cyclic peptide evaluated above was normalized to the binding amount of the cyclic peptide molecules per one molecule of FGFR using the molecular weights of the cyclic peptide and FGFR, and the binding affinity to FGFR was evaluated according to the following evaluation criteria. The evaluation result preferably satisfies the evaluation criteria A, B, or C.
• A: The binding amount is 0.7 molecules of the cyclic peptide/one molecule of FGFR or more. • B: The binding amount is 0.5 molecules of the cyclic peptide/one molecule of FGFR or more and less than 0.7 molecules of cyclic peptide/one molecule of FGFR. • C: The binding amount is 0.1 molecules of cyclic peptide/one molecule of FGFR or more and less than 0.5 molecules of cyclic peptide/one molecule of FGFR. • D: The binding amount is less than 0.1 molecules of the cyclic peptide/one molecule of FGFR.

[2] = target: T2, FGFR1 Protein, Human, Recombinant (His Tag) (Homo sapiens, UniProt P11362); test: SPR FGFR versatility, FGFR1 on immobilized cyclic peptide; type: binding; conditions: 1 μmol/L FGFR, 25° C.
T2 construct: His tag; purchased Sino Biological 10616-H08H
T2 sequence (P11362 22-285 isoform P11362-14 limits assumed): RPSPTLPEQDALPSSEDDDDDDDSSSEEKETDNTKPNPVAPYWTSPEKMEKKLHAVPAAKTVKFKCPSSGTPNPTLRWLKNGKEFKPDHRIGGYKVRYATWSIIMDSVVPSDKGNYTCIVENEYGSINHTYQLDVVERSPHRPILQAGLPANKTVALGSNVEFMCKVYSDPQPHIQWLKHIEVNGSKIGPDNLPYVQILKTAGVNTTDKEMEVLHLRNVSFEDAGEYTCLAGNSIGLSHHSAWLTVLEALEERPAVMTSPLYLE
Experimental: The binding of the cyclic peptide to various types of FGFRs was evaluated using a surface plasmon resonance (SPR) method.
as §1
A CM5 sensor chip (Cytiva, 29149603) was set in Biacore-T200 (manufactured by Cytiva) which is a surface plasmon resonance device, and an HBS-EP buffer (Cytiva, BR100826) was added as a running buffer at a flow rate of 10 μL/min to equilibrate the flow channel. Next, 70 μL of a mixed aqueous solution of 0.2 mol/L 1-(3-dimethylaminopropyl)-3-ethylcarbodiimide (EDC) and 0.05 mol/L N-hydroxysuccinimide (NHS) was added to activate the sensor chip. Then, a cyclic peptide prepared to 2 mg/mL in HBS-EP buffer was added thereto to perform immobilization at about 200 RU. […]
After various FGFRs (FGFR1 Protein, Human, Recombinant (His Tag) (Sino Biological, 10616-H08H), FGFR3 Protein, Human, Recombinant (ECD, His Tag) (Sino Biological, 16044-H08H), FGFR4 Protein, Human, Recombinant (His Tag) (Sino Biological, 10538-H08H)) diluted with HBS-EP to 1 μmol/L at 25° C. was added to each flow channel of the cyclic peptide-immobilized sensor chip prepared above, for 10 minutes, HBS-EP was allowed to flow as a running buffer for 30 minutes, and the binding of various FGFRs to the cyclic peptide was measured. […]

T1 sequence (P11362 with tags, fused parts or gaps limits assumed): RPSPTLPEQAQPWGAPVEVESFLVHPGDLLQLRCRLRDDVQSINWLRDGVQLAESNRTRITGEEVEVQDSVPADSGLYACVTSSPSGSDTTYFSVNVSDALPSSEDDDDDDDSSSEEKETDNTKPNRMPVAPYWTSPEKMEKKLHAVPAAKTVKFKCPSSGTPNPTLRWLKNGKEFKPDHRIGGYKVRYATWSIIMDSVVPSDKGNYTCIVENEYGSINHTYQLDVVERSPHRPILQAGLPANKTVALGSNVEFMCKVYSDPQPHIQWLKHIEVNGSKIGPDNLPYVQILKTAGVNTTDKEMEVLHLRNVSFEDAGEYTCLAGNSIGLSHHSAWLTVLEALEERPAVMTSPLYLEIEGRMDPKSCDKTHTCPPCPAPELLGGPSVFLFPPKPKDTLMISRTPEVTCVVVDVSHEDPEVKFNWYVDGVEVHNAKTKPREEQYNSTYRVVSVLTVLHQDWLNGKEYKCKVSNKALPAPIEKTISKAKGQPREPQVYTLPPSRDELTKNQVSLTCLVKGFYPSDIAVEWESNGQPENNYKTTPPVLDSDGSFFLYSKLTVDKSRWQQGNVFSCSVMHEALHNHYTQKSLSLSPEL

335 (ACVWTFDRHAQEISQALHKVKKK; not fully specified; Description of Artificial Sequence: Cyclic peptide) [compound 335]
Evaluation result of binding affinity to FGFR [1]: A (The binding amount is 0.7 molecules of the cyclic peptide/one molecule of FGFR or more.) | Evaluation result of binding affinity to FGFR1 [2]: A (The binding amount is 0.05 molecules of FGFR/one molecule of the cyclic peptide or more.)
